Test results published in article doi:10.1101/203372.

Biological target: HDAC6-EGFP WT (full-length human histone deacetylase 6 fused to EGFP) (human) (UniProt Q9UBN7)
Assay: MST

Sequence of HDAC6-EGFP WT (full-length human histone deacetylase 6 fused to EGFP) (human) (Q9UBN7 whole entry, the tested form may be a part): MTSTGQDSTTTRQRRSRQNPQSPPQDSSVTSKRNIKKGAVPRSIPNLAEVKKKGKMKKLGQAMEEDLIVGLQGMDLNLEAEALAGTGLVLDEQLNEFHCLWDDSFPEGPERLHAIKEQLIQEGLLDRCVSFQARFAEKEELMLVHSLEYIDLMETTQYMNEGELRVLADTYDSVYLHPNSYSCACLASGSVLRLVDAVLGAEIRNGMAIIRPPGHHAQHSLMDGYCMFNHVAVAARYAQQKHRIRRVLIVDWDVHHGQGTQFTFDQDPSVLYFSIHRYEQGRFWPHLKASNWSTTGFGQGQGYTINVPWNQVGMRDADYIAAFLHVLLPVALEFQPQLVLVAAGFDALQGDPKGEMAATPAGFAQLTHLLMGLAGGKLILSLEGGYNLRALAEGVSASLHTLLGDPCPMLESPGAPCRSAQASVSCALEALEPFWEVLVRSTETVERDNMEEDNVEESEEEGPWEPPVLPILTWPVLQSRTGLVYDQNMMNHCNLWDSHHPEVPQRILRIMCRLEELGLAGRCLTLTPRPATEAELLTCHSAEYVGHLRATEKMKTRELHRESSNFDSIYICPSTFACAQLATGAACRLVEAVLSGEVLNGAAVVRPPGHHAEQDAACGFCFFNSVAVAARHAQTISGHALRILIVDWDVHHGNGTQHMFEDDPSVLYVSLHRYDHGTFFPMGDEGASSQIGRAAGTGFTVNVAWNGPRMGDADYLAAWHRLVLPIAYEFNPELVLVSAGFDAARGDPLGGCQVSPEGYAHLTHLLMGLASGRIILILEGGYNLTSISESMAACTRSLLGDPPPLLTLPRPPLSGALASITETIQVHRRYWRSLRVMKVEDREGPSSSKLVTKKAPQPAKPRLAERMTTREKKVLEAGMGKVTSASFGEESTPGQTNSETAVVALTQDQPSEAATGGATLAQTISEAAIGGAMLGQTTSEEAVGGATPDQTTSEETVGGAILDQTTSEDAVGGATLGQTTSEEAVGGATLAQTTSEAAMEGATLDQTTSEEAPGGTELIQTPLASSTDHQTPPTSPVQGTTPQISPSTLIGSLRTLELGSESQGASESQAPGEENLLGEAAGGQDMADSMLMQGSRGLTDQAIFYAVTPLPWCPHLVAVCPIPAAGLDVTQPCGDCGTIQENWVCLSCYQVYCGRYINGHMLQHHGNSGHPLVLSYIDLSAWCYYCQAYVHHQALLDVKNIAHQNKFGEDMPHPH
Sequence of NEDD8, human, recombinant, His-tag (Q15843 1-76): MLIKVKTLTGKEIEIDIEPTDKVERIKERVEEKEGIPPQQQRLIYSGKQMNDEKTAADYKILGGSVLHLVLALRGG

Row | Substance | fold higher affinity than mono-Ub [fold] | fold lower affinity than mono-Ub [fold]
1 | K63-linked tetra-Ub (from UniProt P0CG48) | 4 | 
2 | NEDD8, human, recombinant, His-tag (from UniProt Q15843 1-76) (natural protein) |  | 50
